In patent publication US20230212319A1, “NOVEL ANTIGEN BINDING DOMAINS AND SYNTHETIC ANTIGEN RECEPTORS INCORPORATING THE SAME” (University of Southern California, priority 2020, published 2023):

B1: 22256 (protein)
chain: MGPRLLFWALLCLLGTGPVEAGVTQSPTHLIKTRGQQATLRCSPISGHTSVYWYQQALGLGLQFLLWYDEGEERNRGNFPPRFSGRQFPNYSSELNVNALELEDSALYLCASSLGGPRGLAGLRGDEQFFGPGTRLTVLEGTGGGGSGGGEFDIQMTQSPSSLSASVGDRVTITCKASDHINNWLAWYQQKPGQAPKLLIYGATTLETGVPSRFSGSGSGTDYTLTISSLQPEDFATYYCQQSWNTPWTFGQGTKLEIKRLEDLKNVFPPEVAVFEPSEAEISHTQKATLVCLATGFYPDHVELSWWVNGKEVHSGVCTDPQPLKEQPALNDSRYCLSSRLRVSATFWQNPRNHFRCQVQFYGLSENDEWTQDRAKPVTQIVSAEAWGRADCGFTSESYQQGVLSATILYEILLGKATLYAVLVSALVLMAMVKRKDSRGRAKRSGSGATNFSLLKQAGDVEENPGPTSATMDWIWRILFLVGAATGAHSGPEVQLVESGGGLVQAGGSLRLSCAASGRTFSMGWFRQAPGKEREFVAAITYSGGSPYYADSVKGRFTISRDNAKNTVYLQMNSLKPEDTAVYYCAANPTYGSDWNAENWGQGTQVTVSSGSGGGGSGGGGSGGGGSFEQVQLQQPGAELVKPGASVKMSCKASGYAFSSYWINWMKQKPGQGLEWIGQIYPGDGDTNYNGKFKGRATLTADTSSSTAYMQLSSLTSEDSAVYFCARSITTVVGCAMDYWGQGTSVTVSSTRIQNPDPAVYQLRDSKSSDKSVCLFTDFDSQTNVSQSKDSDVYITDKCVLDMRSMDFKSNSAVAWSNKSDFACANAFNNSIIPEDTFFPSPESSCDVKLVEKSFETDTNLNFQNLSVIGFRILLLKVAGFNLLMTLRLWSSRAKRSGSGVKQTLNFDLLKLAGDVESNPGPSRGHMTEYKPTVRLATRDDVPRAVRTLAAAFADYPATRHTVDPDRHIERVTELQELFLTRVGLDIGKVWVADDGAAVAVWTTPESVEAGAVFAEIGPRMAELSGSRLAAQQQMEGLLAPHRPKEPAWFLATVGVSPDHQGKGLGSAVVLPGVEAAERAGVPAFLETSAPRNLPFYERLGFTVTADVEVPEGPRTWCMTRKPGA
B2: 22144 (protein)
chain: MALPVTALLLPLALLLHAARPMLPAPKNLVVSRITEDSARLSWTAPDAAFDSFPIRYIETLIWGEAIWLDVPGSERSYDLTGLKPGTEYAVVITGVKGGRFSSPLVASFTTGTGGGGSGGGGSGGGGSEFDIQMTQSPSSLSASVGDRVTITCRASQDISNYLNWYQQKPGKAVKLLIYYTSILHSGVPSRFSGSGSGTDYTLTISSLQPEDFATYFCQQGNTLPWTFGGGTKVEIKLEDLKNVFPPEVAVFEPSEAEISHTQKATLVCLATGFYPDHVELSWWVNGKEVHSGVCTDPQPLKEQPALNDSRYCLSSRLRVSATFWQNPRNHFRCQVQFYGLSENDEWTQDRAKPVTQIVSAEAWGRADCGFTSESYQQGVLSATILYEILLGKATLYAVLVSALVLMAMVKRKDSRGRAKRSGSGATNFSLLKQAGDVEENPGPTSMDWIWRILFLVGAATGAHSFEVQLVESGGGLVKPGGSLKLSCAASGFAFSIYDMSWVRQAPGKGLEWVAYISSGGGTTYYPDTVKGRFTISRDNAKNTLYLQMSSLRAEDTAMYYCARHSGYGSSYGVLFAYWGQGTLVTVSSTRIQNPDPAVYQLRDSKSSDKSVCLFTDFDSQTNVSQSKDSDVYITDKCVLDMRSMDFKSNSAVAWSNKSDFACANAFNNSIIPEDTFFPSPESSCDVKLVEKSFETDTNLNFQNLSVIGFRILLLKVAGFNLLMTLRLWSSRAKRSGSGVKQTLNFDLLKLAGDVESNPGPSRGHMTEYKPTVRLATRDDVPRAVRTLAAAFADYPATRHTVDPDRHIERVTELQELFLTRVGLDIGKVWVADDGAAVAVWTTPESVEAGAVFAEIGPRMAELSGSRLAAQQQMEGLLAPHRPKEPAWFLATVGVSPDHQGKGLGSAVVLPGVEAAERAGVPAFLETSAPRNLPFYERLGFTVTADVEVPEGPRTWCMTRKPGA
B3: 22146 (protein)
chain: MALPVTALLLPLALLLHAARPACEVQLLESGGGLIQPGGSLRLSCAASGFTFSSHAMTWVRQAPGKGLEWVSAISGSGDYTHYADSVKGRFTISRDNSKNTVYLQMNSLRAEDSAVYYCAKDEDGGSLLGHRGQGTLVTVSSGTGGGGSGGGGSGGGGSEFDIQMTQSPSSLSASVGDRVTITCRASQDISNYLNWYQQKPGKAVKLLIYYTSILHSGVPSRFSGSGSGTDYTLTISSLQPEDFATYFCQQGNTLPWTFGGGTKVEIKLEGQPKANPTVTLFPPSSEELQANKATLVCLISDFYPGAVTVAWKADGSPVKAGVETTKPSKQSNNKYAASSYLSLTPEQWKSHRSYSCQVTHEGSTVEKTVAPTECSGRADCGFTSESYQQGVLSATILYEILLGKATLYAVLVSALVLMAMVKRKDSRGRAKRSGSGATNFSLLKQAGDVEENPGPTSATMDWIWRILFLVGAATGAHSGPQVQLQESGGGLAQAGGSLRLSCAASGRTFSMGWFRQAPGKEREFVAAITYSGGSPYYASSVRGRFTISRDNAKNTVYLQMNSLKPEDTAVYYCAANPTYGSDWNAENWGQGTQVTVSSGSGGGGSGGGGSGGGGSFEVQLVESGGGLVKPGGSLKLSCAASGFAFSIYDMSWVRQAPGKGLEWVAYISSGGGTTYYPDTVKGRFTISRDNAKNTLYLQMSSLRAEDTAMYYCARHSGYGSSYGVLFAYWGQGTLVTVSSTRASTKGPSVFPLAPSSKSTSGGTAALGCLVKDYFPEPVTVSWNSGALTSGVHTFPAVLQSSGLYSLSSVVTVPSSSLGTQTYICNVNHKPSNTKVDKRVEPKSCIPEDTFFPSPESSCDVKLVEKSFETDTNLNFQNLSVIGFRILLLKVAGFNLLMTLRLWSSRAKRSGSGVKQTLNFDLLKLAGDVESNPGPSRGHMTEYKPTVRLATRDDVPRAVRTLAAAFADYPATRHTVDPDRHIERVTELQELFLTRVGLDIGKVWVADDGAAVAVWTTPESVEAGAVFAEIGPRMAELSGSRLAAQQQMEGLLAPHRPKEPAWFLATVGVSPDHQGKGLGSAVVLPGVEAAERAGVPAFLETSAPRNLPFYERLGFTVTADVEVPEGPRTWCMTRKPGA
B4: 21852 (protein)
chain: MALPVTALLLPLALLLHAARPSYVLTQPPSVSVAPGQTARITCGGNNLGSKSVHWYQQPPGQAPVVVVYDDSDRPSGIPERFSGSNSGNTATLTISRVEAGDEAVYYCQVWDSSSDHVVFGGGTKLTVLLEDLKNVFPPEVAVFEPSEAEISHTQKATLVCLATGFYPDHVELSWWVNGKEVHSGVCTDPQPLKEQPALNDSRYCLSSRLRVSATFWQNPRNHFRCQVQFYGLSENDEWTQDRAKPVTQIVSAEAWGRADCGFTSESYQQGVLSATILYEILLGKATLYAVLVSALVLMAMVKRKDSRGRAKRSGSGATNFSLLKQAGDVEENPGPTSMDWIWRILFLVGAATGAHSFEQLQLQESGPGLVKPSETLSLTCTVSGGSISSGSYFWGWIRQPPGKGLEWIGSIYYSGITYYNPTLKSRVTISVDTSKNQFSLKLSSVTAADTAVYYCARHDGAVAGLFDYWGQGTLVTVSSATRIQNPDPAVYQLRDSKSSDKSVCLFTDFDSQTNVSQSKDSDVYITDKCVLDMRSMDFKSNSAVAWSNKSDFACANAFNNSIIPEDTFFPSPESSCDVKLVEKSFETDTNLNFQNLSVIGFRILLLKVAGFNLLMTLRLWSS

How the values were obtained:
HepG2 cells = format: cell-based
RAJI cells = assay: JNG assay, co-culture with RAJI cells; format: cell-based; conditions: JNG cells expressing construct, co-culture with Raji
In short: (§1)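 Jurkat-NFAT-GFP (JNG) cells stably expressing SAR constructs via lentiviral transduction and puromycin/blasticidin selection were cocultured with target cells at E:T ~1:2 for ~4–18 h. NFAT-driven GFP was measured by FACS versus parental JNG cells; scores +/- to 5+ denote ~5–50% GFP-positive cells.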

L363 cells = assay: JNG assay, co-culture with L363 cells; format: cell-based; conditions: co-culture with L363
In short: as §1

Nalm6 cells = assay: JNG assay, co-culture with Nalm6 cells; format: cell-based; conditions: co-culture with Nalm6
In short: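 Read-out: % GFP-positive cells by flow cytometry after ~4 to 18 h coculture of SAR-transduced JNG cells with targets (E:T about 1:2). Scores reflect GFP induction above parental JNG controls: +/- ≈5%, + ≈10%, up to 5+ ≈50%.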

U266 cells = assay: JNG NFAT-GFP induction on co-culture with U266; format: cell-based
Raji-CD22-KO = assay: JNG NFAT-GFP assay, co-culture with Raji-CD22-KO cells; format: cell-based
L363-Luc cells = assay: L363 xenograft in NSG mice
THP-1 cells = assay: JNG NFAT-GFP induction on co-culture with THP-1
[1] = JNG NFAT-GFP background GFP induction (tonic signaling)

Molecule | NFAT-GFP ASSAY: HepG2 (HepG2 cells) | NFAT-GFP ASSAY: Raji (RAJI cells) | NFAT-GFP ASSAY: L363 (L363 cells) | NFAT-GFP ASSAY: Nalm6 (Nalm6 cells) | NFAT-GFP ASSAY: U266 (U266 cells) | NFAT-GFP ASSAY: Raji-CD22-KO (Raji-CD22-KO) | disease control, L363 xenograft (L363-Luc cells; 0.5 × 10^6 L363-Luc i.v., 3 days later 2 × 10^6 SAR-T i.v., compared to control T cells) | survival, L363 xenograft (L363-Luc cells; mouse, in vivo, iv) | GFP induction upon co-culture with THP-1 (THP-1 cells) | background GFP induction (tonic signaling) [1]
B1 | RAJI (+/-), HepG2 (-/^+) |  |  |  |  |  |  |  |  | 
B2 |  | + (refer to approximately 5%, 10%, 20%, 30%, 40% and 50% GFP positive cells) | + (refer to approximately 5%, 10%, 20%, 30%, 40% and 50% GFP positive cells) | +/- (refer to approximately 5%, 10%, 20%, 30%, 40% and 50% GFP positive cells) | 3+ (refer to approximately 5%, 10%, 20%, 30%, 40% and 50% GFP positive cells) | +/- (refer to approximately 5%, 10%, 20%, 30%, 40% and 50% GFP positive cells) |  |  |  | 
B3 |  | 2+ (refer to approximately 5%, 10%, 20%, 30%, 40% and 50% GFP positive cells) | + (refer to approximately 5%, 10%, 20%, 30%, 40% and 50% GFP positive cells) | +/- (refer to approximately 5%, 10%, 20%, 30%, 40% and 50% GFP positive cells) | 2+ (refer to approximately 5%, 10%, 20%, 30%, 40% and 50% GFP positive cells) | 3+ (refer to approximately 5%, 10%, 20%, 30%, 40% and 50% GFP positive cells) |  |  |  | 
B4 |  |  |  |  |  |  | superior disease control | prolongation of survival | no GFP induction | no background GFP induction
